Reference: publication PMC6155126

What was measured:
FLAG-PAXX (human) = FLAG-PAXX (human) (UniProt Q9BUH6); assay: affinity purification with mass spectrometry; anti-FLAG IP of FLAG-PAXX, -XLF, -XRCC4, -DNA-PKcs (stable) or FLAG-Pol λ (transient) from nucleoplasmic and benzonase-treated soluble chromatin fractions of HEK293F cells; FLAG peptide elution; LC-MS/MS
FLAG-Pol λ-WT (human) = FLAG-Pol λ-WT (human) (UniProt Q9UGP5)
Chain of FLAG-Pol λ-WT (human) (Q9UGP5 whole entry): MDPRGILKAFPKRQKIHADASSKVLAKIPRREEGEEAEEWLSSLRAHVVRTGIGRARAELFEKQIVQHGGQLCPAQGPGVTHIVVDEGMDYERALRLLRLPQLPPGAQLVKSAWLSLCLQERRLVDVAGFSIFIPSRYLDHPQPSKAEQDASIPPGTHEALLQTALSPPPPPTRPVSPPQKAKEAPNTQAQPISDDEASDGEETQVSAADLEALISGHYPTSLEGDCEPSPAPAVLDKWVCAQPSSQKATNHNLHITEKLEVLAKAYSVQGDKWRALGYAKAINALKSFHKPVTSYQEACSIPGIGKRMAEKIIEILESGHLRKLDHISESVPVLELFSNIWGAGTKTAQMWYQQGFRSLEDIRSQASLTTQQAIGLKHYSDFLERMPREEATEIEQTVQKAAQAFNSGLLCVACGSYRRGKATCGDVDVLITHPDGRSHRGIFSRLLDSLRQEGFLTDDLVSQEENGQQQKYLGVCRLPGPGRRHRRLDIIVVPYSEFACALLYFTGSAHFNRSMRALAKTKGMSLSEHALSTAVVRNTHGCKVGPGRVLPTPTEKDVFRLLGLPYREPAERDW

Row | stoichiometry N (FLAG-PAXX (human)) | Pol λ-dependent gap filling synthesis on a 5nt-gapped dsDNA (33-mer), stimulation by added protein over a concentration series (FLAG-Pol λ-WT (human)) [fold] | Substance
1 | 1 to 1.5 | – | DNA-PK holoenzyme (endogenous) (from UniProt P78527 1-4128; P12956 1-609; P13010 1-732) (complex)
2 | – | < 10 | FLAG-PAXX (from UniProt Q9BUH6 1-204) (natural protein)
